The values that follow come from patent publication US7667100B2, “Nucleic acid compositions conferring herbicide resistance” (Dow AgroSciences LLC, priority 2002, dated 2010).

Data set [1] deals with Nicotiana benthamiana. Nature of the data set: Evaluation of auxin tolerance in greenhouse plants inoculated with clone transcript and sprayed with herbicide. Format: in vivo. The following applies: for reproducibility of auxin tolerance from Trial #1 to Trial #2: greenhouse, 30% or more of test population tolerant by 14 dat. How it is done: All primary hit sequences were evaluated for tolerance in larger plants, maintained under greenhouse conditions as described below.
Plant Growth and Maintenance. Nb seeds were sown in 6.5 cm pots filled with Redi-earth medium (The Scotts Company, Marysville, Ohio) pre-wetted by injection of Hoagland's fertilizer solution [all from the Scotts Company: 147 kg Peters Excel 15-15-15 Cal-Mag, 68 kg Peters Excel 15-0-0 Cal-Lite (15% Ca), and 45 kg Peters Excel 10-0-0 MagNitrate (10% Mg) in hot tap water to 596 L total volume] into irrigation water at a ratio of 200:1, using an injection system (H. E. Anderson, Muskogee Okla,). Seededpots were placed in the greenhouse for 1 day, transferred to a 27° C. germination chamber (Carolina Greenhouses, Kinston, N.C.) for 2 days, and then returned to the greenhouse. Shade curtains (33% transmittance) were used in the greenhouse to reduce solar intensity. To ensure 16 hour day length and supplement solar radiation on overcast days, artificial lighting consisting of a 1:1 mixture of metal halide and high pressure Sylvania sodium lamps was used, delivering approximately 220 μmol/m^2/s. Evaporative cooling and steam heat were used to maintain a daytime set point of 27° C. and a nighttime temperature of 22° C. At approximately 7 days post sowing (dps), seedlings were thinned to one seedling per pot and at 17 to 21 dps, the pots were spaced farther apart to accommodate plant growth. Plants were watered with Hoagland's solution as required. Following inoculation, waste irrigation water was collected and treated with 0.5% sodium hypochlorite for 10 minutes to neutralize any viral contamination before discharging into the municipal sewer.
Plant Inoculation. For each clone, 50 test plants as well as 10 GFP and bar (Thompson et al., EMBO J. 6:2519 [19870]) negative control plants were inoculated as follows: 2.0 mL of inoculum per clone were prepared by combining equal volumes of NCAP transcript and FES buffer [0.1 M glycine, 0.06 M K2HPO4, 1% sodium pyrophosphate, 1% diatomaceous earth (Sigma Chemical Company, St. Louis, Mo.), and either 1% silicon carbide (Aldrich Chemical Company, Milwaukee, Wis.), or 1% Bentonite (Sigma Chemical Company, St. Louis, Mo.)]. The inoculum was applied to each plant at 17 days post sowing by pipetting onto the upper surface of leaves 3 and 4 (˜20 μL per leaf). The inoculum was then spread across each leaf surface using a 3″ cotton tipped applicator (Calapro Swab, Fisher Scientific, Pittsburgh, Pa.) and a gloved finger to support the leaf. Following inoculation the plants were misted with deionized water.
Infection Scoring. At 8 days post inoculation (dpi), the plants were visually examined and a numerical score was assigned to each plant to indicate the extent of viral infection symptoms: 0=no infection, 1=possible infection, 2=infection symptoms limited to leaves <50-75% fully expanded, 3=typical systemic infection, 4=atypically severe infection, often accompanied by moderate to severe wilting and/or necrosis. Plants receiving an infection rating of 0, 1, or 4 were discarded.
Herbicide spraying. At 9 dpi, the well infected plants (infection score of 3, sometimes 2) were divided into 3 treatment groups. Group 1, to be sprayed with solvent only, contained 4 plants per test clone (2 plants per negative control) and Groups 2 and 3, to be treated with 13 or 40 g ae/ha, respectively, each consisted of 12 test plants per clone and 2 plants per negative control. […]

Data set [2] relates to Nicotiana benthamiana. Nature of the data set: Cross-resistance testing against six auxin compounds (greenhouse). The following applies: for tolerance to picloram (Compound #5): 10 g ae/ha and 1/2x; for tolerance to positive control 4-amino-3,6-dichloropyridine-2-carboxylic acid (Compound #6): 10 g ae/ha and 1/2x (5 g ae/ha); for tolerance to dicamba (Compound #3): 64 g ae/ha and 1/2x; for tolerance to quinclorac (Compound #1): 200 g ae/ha and 1/2x; for extent of cross-resistance to the six auxin compounds: two trials, two doses per auxin, thresholds 25% or 35% injury or less. Format: in vivo. An excerpt: Six compounds, representing five classes of auxin chemistry, were selected for testing the extent of auxinic tolerance of five hit sequences (129965 (SEQ ID NO:10), 130213 (SEQ ID NO: 14), 130294 (SEQ ID NO:360), 130994 (SEQ ID NO:361), and 129870 (SEQ ID NO:359)). The compounds included the following: • 1) quinclorac (BASF Corp., Research Triangle, N.C.) • 2) (2,4-dichlorophenoxy) acetic acid (Dow AgroSciences, Indianapolis, Ind.) • 3) dicamba (Monsanto, St. Louis, Mo.) • 4) benazolin (AgrEvo USA Company, Wilmington, Del.) • 5) picloram (Dow AgroSciences, Indianapolis, Ind.) • 6) 4-amino-3,6-dichloropyridine-2-carboxylic acid (Dow AgroSciences, Indianapolis, Ind.) Compound #6 served as a positive control, as these five sequences were identified for their herbicide tolerant function using this auxin (see Example 9). Compound #1 represents the quinoline carboxylic acid chemical family, #2 is in the phenoxy carboxylic acid class, #3 is benzoic acid chemistry, #4 is unique to any currently defined class, and #5 is in the same family as the positive control, pyridine carboxylic acids.
The protocol was essentially the same as that described in Example 9 for greenhouse evaluations. However, an individual experiment consisted of 200 test plants plus 35 GFP and 35 bar negative control plants inoculated per clone. […] Two doses per auxin were tested, with as many as 12 well-infected test plants and 2 of each of the negative controls per dose.
The six auxin solutions were prepared by dissolving solid compound in General Purpose Solvent (GPS: 97%DMSO: 3% acetone) to achieve the following spray rates (g ae/ha) when using the spray applicator and parameters outlined in Example 9: Compound #1) 200; 2) 42; 3) 64; 4) 200; 5) 10; 6) 10. From each of these solutions, a portion was diluted with an equal volume of GPS, resulting in 1× (“high dose”) and ½× (“low dose”) concentrations for spraying. Before spray application, each auxin solution was mixed with an equal volume of diluent containing surfactants for effective penetration. The diluent was prepared as follows: 420 mL GPS, 460 mL DI water, 120 mL isopropyl alcohol, 10.167 mL Agri-Dex (Helena Chemical Co., Memphis, Tenn.), and 0.167 mL Triton X-155 (Sigma Chemical Co., St. Louis, Mo.). In addition to the 200 and 100 g ae/ha rates tested for Compound #4 (benazolin), a concentration of 250 g ae/ha was also formulated as described above and tested.
Plants were sprayed and evaluated as described in Example 9. FIG. 7 summarizes the sequences tested and the highest dose of the compounds against which tolerance was observed. […] Results are reported in FIG. 7 for each of the trials with each construct.
The positive control (Compound #6) was formulated differently in this set of evaluations from that described in Example 9, for consistency in the solvent/surfactant background from which to compare the activity of the individual sequences against each auxin. Thus, the spray rate used for evaluation was lower than previous experiments, 5 vs. 13 g ae/ha. The need to lower the dose with this formulation to prevent total chlorosis and/or necrosis was likely due to the addition of DMSO, Agri-Dex, and Triton X-155 which were not used in Example 9.

B1: 130294: Poppy cDNA clone; auxin tolerance hit sequence (nucleic acid)
DNA: TTAATTAAGTCGACGAATTCACATCTAAAGTCAACAACAAGAGCTTCTCTCTTCTCCTCGTCTCTGTTCTCCTCTCTTTTGCAATCCTCTCTCAATCTGCTGATGATTGTGTATACACAGTATACACAAGAACAGGATCAATCATCAAAGGAGGAACGGATTCAAAAATCTCACTAAGATTATACAGCAAATACGGTAAGTACATCGAGATCCCAAATCTTGAATCATGGGGTGGATTAATGGGTCCTGGTTACGATTATTTCGAAAGAGGTAATCTTGATATCTTCAGCGGAAGAGGTTATTGTCTGGGTTCACCGGTTTGTGCCATGAATCTGACTTCCGATGGTACTGGTTCCGGTCACGGATGGTATGTGAATTATGTTGAAGTTACTACTACCGGTGCACATATTAATTGTGGTCAACAGAATTTTGAAGTGGAAGATTGGCTTGCTCTTGATAGATCTCCTTATAGTCTTACCGCTATCAAGAATAATTGTAATCAGAAATTATCTGATCATGATTCTCATTCTGCTGATCAGTCTATGTAAAATTTGATCTCTTGTTTGATTCGGTGGTGGTCTAGTATGAGTGATCGGACGGTCGTCATTGTGTGTTGTAATGTTGAAATTATTTTCTTGAATAAAATGATTGAGTGAGTAGTGTTTGATTTTGCTTGGCCATCTTAGACATGATGGTGAGACTGTTTCTCGATTCGATGCAATTTTTTGGTTTTCTTGGTTGCAATCAATTCACGTTTGGTGAAAAAAAAAAAAAAAAAAAAAAAAAAAAAAAAAAAAAAAAAAAA
modifications: Poppy
As for B1, in data set [1], the “reproducibility of auxin tolerance from Trial #1 to Trial #2” value is “reproducible auxin tolerance”. In data set [2], the “tolerance to picloram (Compound #5)” value is “clear resistance to dicamba and picloram when the 35% rating was considered”; the “tolerance to positive control 4-amino-3,6-dichloropyridine-2-carboxylic acid (Compound #6)” value was “tolerance consistently occurred at the lower threshold (25% injury or less)”; the “tolerance to dicamba (Compound #3)” value is “clear resistance to dicamba and picloram when the 35% rating was considered”; the “tolerance to quinclorac (Compound #1)” value is “consistently tolerant to quinclorac exposure at the 25% injury threshold”. In addition, the “extent of cross-resistance to the six auxin compounds” value in data set [2] is recorded as “tolerance was observed against four compounds”.

B2: 130213: Poppy cDNA clone; auxin tolerance hit sequence (nucleic acid)
DNA: TTAATTAAGTCGACGAATTCATATGAAGAAATGGTTGAATTTATGGAAAAAGTAACAACAAATGTTGAATCAGAGGAACTTTCAGTTGAAGAGAGAAATTTATTGTCAGTTGCTTACAAAAATGTGATTGGTGCACGCAGAGCATCATGGAGAATTATTTCATCAATTGAACAGAAAGAAGAAAGCCGTGGTAACGAAGAGAATGTATTGACCATTCGTGATTATAGATCTAAGATTGAAACTGAACTTTCAGGCATCTGTGATGGGATTTTGAAGTTGCTTGATACTAGATTGATTCCATCTGCATCTTCTGGTGATTCTAAAGTGTTTTATTTGAAAATGAAAGGTGATTATCATCGTTATTTGGCTGAGTTTAAAACTGGTACCGAAAGGAAAGAAGCTGCTGAAAGTACCCTTTCTGCTTATAAATCTGCTCAGGATATCGCAACTGCTGAACTTGCACCCACTCACCCAATCAGGCTGGGACTTGCTCTTAACTTTCTCCGTCTTTTACTACGAGATCTTGAATTCTCCTGCCGTGCTTGTAATCTCGCCAAACAGGCATTTGATGAGGCTATCGCGGAGCTGGATACCCTTGGTGAAGAATCATACAAAGACAGCACTCTAATCATGCAGCTCCTTCGTGACAATCTTACTCTGTGGACCTCCGACATGCAGGATGATGGTGCAGATGAAATTAAAGAAGCATCCAAGCCTGAAGATGAACATTAATGATAGTTTGTCTGCCACATTTAGGATCTTACCTCCTCTCAGTTTGTTTTATTAAAAGGAGAAGGTGCTTTCTTGGTACACAACTCCTCCAAGTCTACTATTAATTATTAAGGAGTTTAGGGTGGGTACTGTTAGTTTGTCATTCTTCTTATCCTTTGTGCTCGTCTTTTCCTATCTTAATTCTTCTCTTAAAAGAGTTTGAAGTTATATGTTTATCTGAATCTGTGTGGGAACTCCGTTTTATCTAAATTATCTTTTAAGATGACGATAAAAAAAAAAAAAAAAAAA
modifications: Poppy
Turning to B2, in data set [1] (14 days after treatment (dat), 130213 homolog trial, tolerance = 25% injury or less after 13 or 40 g ae/ha 4-amino-3,6-dichloropyridine-2-carboxylic acid), the “plants demonstrating auxin tolerance” value is 17%. Besides, the “reproducibility of auxin tolerance from Trial #1 to Trial #2” value in data set [1] is recorded as “reproducible auxin tolerance”. In data set [2], the “tolerance to picloram (Compound #5)” value is “additional tolerance to picloram and quinclorac when the 35% injury tolerance criterion was used”; the “tolerance to positive control 4-amino-3,6-dichloropyridine-2-carboxylic acid (Compound #6)” value is reported as “tolerance consistently occurred at the lower threshold (25% injury or less)”; the “tolerance to dicamba (Compound #3)” value is “strongly effective”; the “tolerance to quinclorac (Compound #1)” value was “additional tolerance to picloram and quinclorac when the 35% injury tolerance criterion was used”. Besides, the “extent of cross-resistance to the six auxin compounds” value in data set [2] is listed as “tolerance was observed against four compounds”.
